In test [1] the target is T1, recombinant human LTBP3-proTGFβ1 complex (Homo sapiens, UniProt P01137).
T1 construct: made in house; host or cells: Expi293F cells, transient co-transfection
As to the kind of experiment: Octet (Biolayer Interferometry) in vitro kinetic binding. Conditions: in M. From the text: (§1) Biolayer Interferometry (BLI):BLI is a label-free technology for optically measuring biomolecular interactions, e.g., between a ligand immobilized on the biosensor tip surface and an analyte in solution. BLI provides the ability to monitor binding specificity, rates of association and dissociation, or concentration, with precision and accuracy. BLI platform instruments are commercially available, for example, from ForteBio and are commonly referred to as the Octet® System.
(§2) BLI-based binding assays are widely used in the art for measuring affinities and kinetics of antibodies to antigens. It is a label-free technology in which biomolecular interactions are analyzed on the basis of optical interference. One of the proteins, for example, an antibody being tested, can be immobilized on the biosensor tip. When the other protein in solution, for example, an antigen, becomes bound to the immobilized antibody, it causes a shift in the interference pattern, which can be measured in real-time. This allows the monitoring of binding specificity, rates of association and dissociation, as well as concentration dependency. […] Due to its ease of use and fast results, BLI-based assays such as the Octet® system (available from ForteBio/Molecular Devices, Fremont Calif.), are particularly convenient when used as an initial screening method to identify and separate a pool of “binders” from a pool of “non-binders” or “weak binders” in the screening process.
(§3) Table 8 below provides non-limiting examples of high-affinity, context-independent proTGFβ1 antibodies encompassed by the present invention. The table provides representative results from in vitro binding assays, as measured by Octet®.
(§4) Column (A) of the table lists monoclonal antibodies with discrete amino acid sequences. […] Columns (B), (D), (E) and (F) provide affinities of each of the listed antibodies, measured in KD. […] Average KD values of (B) and (C) are shown in the corresponding column (D), which collectively represents affinities of the antibodies to ECM- or matrix-associated proTGFβ1 complexes. Similarly, Average KD values of (E) and (F) are shown in the corresponding column (G), which collectively represents affinities of the antibodies to cell-surface or cell-associated proTGFβ1 complexes. Finally, relative ratios between the average KD values from columns (D) and (G) are expressed as “fold bias” in column (H). Thus, the greater the number of column (H) is, the greater bias exists for the particular antibody, when comparing binding preferences of the antibody for matrix-associated complexes and cell-surface complexes. This is one way of quantitatively representing and comparing inherent bias of antibodies to their target complexes. Such analyses may be useful in guiding the selection process for a candidate antibody for particular therapeutic use.
(§5) In some embodiments, the binding affinity of an antibody, or antigen binding portion thereof, to an antigen (e.g., protein complex), such as presenting molecule-proTGFβ1 complexes, is determined using an Octet assay. In some embodiments, an Octet assay is an assay that determines one or more a kinetic parameters indicative of binding between an antibody and antigen. In some embodiments, an Octet® system (ForteBio, Menlo Park, Calif.) is used to determine the binding affinity of an antibody, or antigen binding portion thereof, to presenting molecule-proTGFβ1 complexes. For example, binding affinities of antibodies may be determined using the fortéBio Octet QKe dip and read label free assay system utilizing bio-layer interferometry. In some embodiments, antigens are immobilized to biosensors (e.g., streptavidin-coated biosensors) and the antibodies and complexes (e.g., biotinylated presenting molecule-proTGFβ1 complexes) are presented in solution at high concentration ([…]) to measure binding interactions. […]
(BLI is a label-free optical method that tracks binding on a fibre tip over time.)

The target of test [2] is T2, recombinant human LTBP1-proTGFβ1 complex (Homo sapiens, UniProt P01137).
T2 construct: made in house; host or cells: Expi293F cells, transient co-transfection
T2 sequence (P01137 30-390): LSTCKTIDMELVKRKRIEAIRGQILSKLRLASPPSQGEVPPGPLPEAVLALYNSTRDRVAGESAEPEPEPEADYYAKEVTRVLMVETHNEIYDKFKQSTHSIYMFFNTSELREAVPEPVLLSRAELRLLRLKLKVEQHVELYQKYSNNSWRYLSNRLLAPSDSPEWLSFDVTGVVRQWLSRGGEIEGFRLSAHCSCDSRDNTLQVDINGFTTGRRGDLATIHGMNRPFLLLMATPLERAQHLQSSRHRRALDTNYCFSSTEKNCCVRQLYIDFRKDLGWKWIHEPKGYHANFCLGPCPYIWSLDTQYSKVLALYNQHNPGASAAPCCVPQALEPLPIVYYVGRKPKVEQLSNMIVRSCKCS
T2 sequence (Q14766 873-1507 partner): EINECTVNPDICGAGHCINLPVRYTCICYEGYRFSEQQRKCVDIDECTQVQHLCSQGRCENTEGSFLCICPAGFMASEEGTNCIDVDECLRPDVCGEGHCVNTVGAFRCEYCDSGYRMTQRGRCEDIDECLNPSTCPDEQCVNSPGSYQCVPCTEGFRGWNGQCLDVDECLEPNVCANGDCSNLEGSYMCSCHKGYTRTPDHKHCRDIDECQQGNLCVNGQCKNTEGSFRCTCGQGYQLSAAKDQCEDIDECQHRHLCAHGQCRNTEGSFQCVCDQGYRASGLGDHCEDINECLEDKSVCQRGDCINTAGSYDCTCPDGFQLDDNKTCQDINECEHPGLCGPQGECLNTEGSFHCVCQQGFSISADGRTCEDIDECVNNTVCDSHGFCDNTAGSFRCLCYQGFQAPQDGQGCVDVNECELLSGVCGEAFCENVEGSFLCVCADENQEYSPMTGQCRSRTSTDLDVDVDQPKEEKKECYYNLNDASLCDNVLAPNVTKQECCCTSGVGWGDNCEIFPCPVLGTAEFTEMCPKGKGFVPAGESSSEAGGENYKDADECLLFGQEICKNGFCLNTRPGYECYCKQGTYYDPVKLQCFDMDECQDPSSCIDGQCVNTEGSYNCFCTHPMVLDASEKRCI
The description is as above. The conditions noted are these: in M.
Source text: as §1, §2, §3, §4, §5

For test [3], the target named is T3, recombinant human LRRC33-proTGFβ1 complex (Homo sapiens, UniProt P01137).
T3 construct: made in house
T3 sequence (P01137 30-390): as the sequence (P01137 30-390) above
T3 sequence (Q86YC3 19-650 partner limits assumed): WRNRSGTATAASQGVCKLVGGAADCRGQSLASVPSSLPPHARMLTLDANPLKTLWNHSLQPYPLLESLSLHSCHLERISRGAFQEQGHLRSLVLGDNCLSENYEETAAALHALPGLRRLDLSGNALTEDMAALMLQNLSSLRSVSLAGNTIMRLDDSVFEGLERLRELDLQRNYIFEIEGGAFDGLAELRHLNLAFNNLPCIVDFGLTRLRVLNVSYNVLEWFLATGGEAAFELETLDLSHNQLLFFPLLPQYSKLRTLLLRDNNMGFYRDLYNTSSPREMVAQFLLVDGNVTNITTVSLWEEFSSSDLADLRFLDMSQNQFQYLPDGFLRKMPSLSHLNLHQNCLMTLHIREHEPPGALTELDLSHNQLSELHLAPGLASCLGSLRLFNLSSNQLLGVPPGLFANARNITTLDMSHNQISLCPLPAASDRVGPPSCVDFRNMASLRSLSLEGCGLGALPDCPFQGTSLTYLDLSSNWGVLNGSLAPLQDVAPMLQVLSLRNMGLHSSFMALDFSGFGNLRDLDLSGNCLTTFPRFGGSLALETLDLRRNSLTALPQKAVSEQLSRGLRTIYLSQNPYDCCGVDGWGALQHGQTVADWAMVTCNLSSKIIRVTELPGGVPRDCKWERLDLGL
Described as above. The conditions noted are these: in M.
Source text: as §1, §2, §3, §4, §5

Test [4] has as its target T4, recombinant human GARP-proTGFβ1 complex (Homo sapiens, UniProt P01137).
T4 construct: made in house
The test is described as above. The conditions noted are these: in M.
Source text: as §1, §2, §3, §4, §5

The subject of test [5] is matrix-associated (LTBP1/LTBP3) and cell-associated (GARP/LRRC33) proTGFβ1 complexes. As to the kind of experiment: Octet: average KD and fold bias, matrix- vs cell-associated complexes. Format: binding, human. Conditions: average KD of (B) and (C), read-out: (D) ECM AVRG.
Test [6] has the same test system. The test is described as above. In kind it is binding, human. The conditions noted are these: for Kd: average KD of (E) and (F), cell-associated complexes, read-out: (G) Cell AVRG; for (H) G/D (fold bias): ratio of average KD cell-associated / matrix-associated. From the text: Column (A) of the table lists monoclonal antibodies with discrete amino acid sequences. […] Columns (B), (D), (E) and (F) provide affinities of each of the listed antibodies, measured in KD. […] Average KD values of (B) and (C) are shown in the corresponding column (D), which collectively represents affinities of the antibodies to ECM- or matrix-associated proTGFβ1 complexes. Similarly, Average KD values of (E) and (F) are shown in the corresponding column (G), which collectively represents affinities of the antibodies to cell-surface or cell-associated proTGFβ1 complexes. Finally, relative ratios between the average KD values from columns (D) and (G) are expressed as “fold bias” in column (H). […] This is one way of quantitatively representing and comparing inherent bias of antibodies to their target complexes.
Average KD values between the two matrix-associated and cell-associated complexes are calculated, respectively (see columns (D) and (G)). These average KD values can then be used to ask whether bias in binding activities exists between complexes associated with matrix vs. complexes associated with cell surface (e.g., immune cells). Bias may be expressed as “fold-difference” in the average KD values, as illustrated in Table 8.

Like-named read-outs stand apart in the source and are kept apart here.

T4 sequence (P01137 30-390): as the sequence (P01137 30-390) above
T4 sequence (Q14392 20-627 partner limits assumed): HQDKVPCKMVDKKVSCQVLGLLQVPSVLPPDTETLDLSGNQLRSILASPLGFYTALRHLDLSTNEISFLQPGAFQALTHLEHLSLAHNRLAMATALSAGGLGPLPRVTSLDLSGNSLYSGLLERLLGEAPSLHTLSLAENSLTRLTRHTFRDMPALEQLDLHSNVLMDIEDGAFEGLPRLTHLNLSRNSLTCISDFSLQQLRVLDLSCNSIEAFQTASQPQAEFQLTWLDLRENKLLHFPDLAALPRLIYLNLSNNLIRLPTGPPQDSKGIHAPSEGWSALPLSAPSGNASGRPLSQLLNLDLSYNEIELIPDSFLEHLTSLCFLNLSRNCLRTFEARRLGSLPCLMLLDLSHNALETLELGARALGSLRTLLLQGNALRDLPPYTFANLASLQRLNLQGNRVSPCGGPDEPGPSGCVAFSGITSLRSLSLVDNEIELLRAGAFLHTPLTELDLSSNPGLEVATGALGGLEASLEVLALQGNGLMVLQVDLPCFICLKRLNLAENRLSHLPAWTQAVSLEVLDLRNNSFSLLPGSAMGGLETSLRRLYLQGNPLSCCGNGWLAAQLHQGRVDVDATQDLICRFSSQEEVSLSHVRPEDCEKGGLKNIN
T1 sequence (P01137 30-390): as the sequence (P01137 30-390) above
T1 sequence (Q9NS15 866-1039 partner limits assumed): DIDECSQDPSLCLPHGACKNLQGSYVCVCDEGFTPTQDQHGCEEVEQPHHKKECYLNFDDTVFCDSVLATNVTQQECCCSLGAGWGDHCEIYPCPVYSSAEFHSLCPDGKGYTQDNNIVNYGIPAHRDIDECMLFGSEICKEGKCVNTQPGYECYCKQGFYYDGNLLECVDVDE

B1: Ab21: monoclonal antibody; VH SEQ ID NO: 129, VL SEQ ID NO: 15 (antibody, V domains shown)
VH: EVQLVESGGGLVQPGGSLRLSCAASGFTFSSFSMDWVRQAPGKGLEWVSYISPDASTIYYADSVKGRFTISRDNAKNSLYLQMNSLRAEDTAVYYCARGVLDYGDMLDPWGQGTLVTVSS
VL: DIQMTQSPSSLSASVGDRVTITCQASQDITNYLNWYQQKPGKAPKLLIYDASNLETGVPSRFSGSGSGTDFTFTISSLQPEDIATYYCQQADNHPPWTFGGGTKVEIK
For B1, the “(C) hLTBP3, Matrix-associated proTGFb1 (KD)” value (from here on “(C) hLTBP3”) in test [1] came out at 2.68E−10. Also, the “(B) hLTBP1, Matrix-associated proTGFb1 (KD)” value (“(B) hLTBP1” for short) in test [2] is 2.25E−10. Moreover, in test [3], the “(F) hLRRC33, Cell-associated proTGFb1 (KD)” value (“(F) hLRRC33” for short) turned out to be 4.55E−10. Further, the “(E) hGARP, Cell-associated proTGFb1 (KD)” value in test [4] came out at 8.33E−10. In test [5], the Kd came out at 0.246 nM. In addition, in test [6], the Kd worked out at 0.644 nM and the “(H) G/D (fold bias)” value was found to be 2.613 fold.

B2: Ab27: monoclonal antibody; VH SEQ ID NO: 135, VL SEQ ID NO: 15 (antibody, V domains shown)
VH: EVQLVESGGGLVQPGGSLRLSCAASGFTFSFYAMNWVRQAPGKGLEWVSYISPDASTIYYADSVKGRFTISRDNAKNSLYLQMNSLRAEDTAVYYCARGVLDYGDMLDPWGQGTLVTVSS
VL: DIQMTQSPSSLSASVGDRVTITCQASQDITNYLNWYQQKPGKAPKLLIYDASNLETGVPSRFSGSGSGTDFTFTISSLQPEDIATYYCQQADNHPPWTFGGGTKVEIK
Regarding B2, in test [1], the “(C) hLTBP3” value worked out at 2.38E−10. The “(B) hLTBP1” value in test [2] was 1.78E−10. For the same molecule, the “(F) hLRRC33” value in test [3] turned out to be 2.99E−10. Further, the “(E) hGARP, Cell-associated proTGFb1 (KD)” value in test [4] stood at 4.24E−10. Moreover, the figures for the Kd in test [5] and in test [6] were 0.208 nM and 0.361 nM, respectively. Also, the “(H) G/D (fold bias)” value in test [6] turned out to be 1.738 fold.

B3: Ab23: monoclonal antibody; VH SEQ ID NO: 131, VL SEQ ID NO: 15 (antibody, V domains shown)
VH: EVQLVESGGGLVQPGGSLRLSCAASGFTFSSFSMNWVRQAPGKGLEWVSYISPSADTIYYADSVKGRFTISRDNAKNTLYLQMNSLRAEDTAVYYCARGVLDYGDMLDPWGQGTLVTVSS
VL: DIQMTQSPSSLSASVGDRVTITCQASQDITNYLNWYQQKPGKAPKLLIYDASNLETGVPSRFSGSGSGTDFTFTISSLQPEDIATYYCQQADNHPPWTFGGGTKVEIK
Consider B3, for which the “(C) hLTBP3” value in test [1] is given as 4.68E−10. In addition, the “(B) hLTBP1” value in test [2] came to 4.17E−10. Moreover, the “(F) hLRRC33” value in test [3] is 4.55E−10. Besides, the “(E) hGARP, Cell-associated proTGFb1 (KD)” value in test [4] is 1.34E−09. For the same molecule, the Kd in test [5] was 0.443 nM. For the same molecule, in test [6], the Kd was found to be 0.897 nM and the “(H) G/D (fold bias)” value is reported as 2.028 fold.

B4: Ab25: monoclonal antibody; VH SEQ ID NO: 133, VL SEQ ID NO: 15 (antibody, V domains shown)
VH: EVQLVESGGGLVQPGGSLRLSCAASGFTFGSFSMDWVRQAPGKGLEWVSYISPDASTIYYADSVKGRFTISRDNAKNSLYLQMNSLRAEDTAVYYCARGVLDYGDMLDPWGQGTLVTVSS
VL: DIQMTQSPSSLSASVGDRVTITCQASQDITNYLNWYQQKPGKAPKLLIYDASNLETGVPSRFSGSGSGTDFTFTISSLQPEDIATYYCQQADNHPPWTFGGGTKVEIK
On to B4, for which, in test [1], the “(C) hLTBP3” value was 1.52E−10. Also, in test [2], the “(B) hLTBP1” value stood at 2.17E−10. Also, the “(F) hLRRC33” value in test [3] was found to be 4.09E−10. Further, the “(E) hGARP, Cell-associated proTGFb1 (KD)” value in test [4] is 4.88E−10. The Kd in test [5] was 0.184 nM. In addition, in test [6], the Kd is 0.449 nM and the “(H) G/D (fold bias)” value is recorded as 2.431 fold.

B5: Ab28: monoclonal antibody; VH SEQ ID NO: 136, VL SEQ ID NO: 15 (antibody, V domains shown)
VH: EVQLVESGGGLVQPGGSLRLSCAASGFTFSSFSMDWVRQAPGKGLEWVSYISPDASTIYYADSVKGRFTISRDNAKNSLYLQMNSLRAEDTAVYYCVRGVLDYGDMLDPWGQGTLVTVSS
VL: DIQMTQSPSSLSASVGDRVTITCQASQDITNYLNWYQQKPGKAPKLLIYDASNLETGVPSRFSGSGSGTDFTFTISSLQPEDIATYYCQQADNHPPWTFGGGTKVEIK
For the molecule B5, the “(C) hLTBP3” value in test [1] came to 3.16E−10. Moreover, in test [2], the “(B) hLTBP1” value was 3.40E−10. The “(F) hLRRC33” value in test [3] turned out to be 4.09E−10. For the same molecule, the “(E) hGARP, Cell-associated proTGFb1 (KD)” value in test [4] turned out to be 7.97E−10. In addition, the Kd in test [5] came to 0.328 nM. Moreover, in test [6], the Kd amounted to 0.603 nM and the “(H) G/D (fold bias)” value was 1.838 fold.

B6: Ab13: monoclonal antibody; VH SEQ ID NO: 242, VL SEQ ID NO: 243 (antibody, V domains shown)
VH: EVQLLESGGGLVQPGGSLRLSCAASGFTFADYAMTWVRQAPGKGLEWVSAISSFASAIYYADSVKGRFTISRDNSKNTLYLQMNSLRAEDTAVYYCARVSSGHWDFDYWGQGTLVTVSS
VL: DIQMTQSPSSLSASVGDRVTITCRASQSISSYLNWYQQKPGKAPKLLIYAASSLQSGVPSRFSGSGSGTDFTLTISSLQPEDFATYYCQQVYDPPLTFGGGTKVEIK
Turning to B6, the “(C) hLTBP3” value in test [1] is 2.49E−10. In addition, the “(B) hLTBP1” value in test [2] came to 2.76E−10. In test [3], the “(F) hLRRC33” value is listed as 1.40E−09. Further, in test [4], the “(E) hGARP, Cell-associated proTGFb1 (KD)” value turned out to be 1.00E−08. Also, the Kd in test [5] was determined as 0.263 nM. In test [6], the Kd is 5.7 nM and the “(H) G/D (fold bias)” value stood at 21.71 fold.

B7: Ab14: monoclonal antibody; VH SEQ ID NO: 244, VL SEQ ID NO: 243 (antibody, V domains shown)
VH: EVQLLESGGGLVQPGGSLRLSCAASGFTFSAYAMTWVRQAPGKGLEWVSAISGTGGSTYYADSVKGRFTISRDNSKNTLYLQMNSLRAEDTAVYYCARVSSGHWDFDYWGQGTLVTVSS
VL: DIQMTQSPSSLSASVGDRVTITCRASQSISSYLNWYQQKPGKAPKLLIYAASSLQSGVPSRFSGSGSGTDFTLTISSLQPEDFATYYCQQVYDPPLTFGGGTKVEIK
For B7, the “(C) hLTBP3” value in test [1] was determined as 3.46E−10. In addition, the “(B) hLTBP1” value in test [2] is given as 3.36E−10. The “(F) hLRRC33” value in test [3] worked out at 1.34E−09. Besides, the “(E) hGARP, Cell-associated proTGFb1 (KD)” value in test [4] is on record as 1.05E−08. Moreover, the Kd in test [5] was determined as 0.341 nM. Besides, in test [6], the Kd was found to be 5.92 nM and the “(H) G/D (fold bias)” value came out at 17.36 fold.

The values are drawn from US11130803B2, “Isoform-selective TGFβ1 inhibitors and use thereof” (Scholar Rock, Inc., priority 2018, dated 2021).
